Results as given in publication PMC2212291.

Biological target: mouse class I molecule H-2 D^b (mouse | mouse (endogenous in MC57))

| Substance | binding plus extraction efficiency [%] |
| --- | --- |
| synthetic LCMV peptide GP33-41 | 17 |
| synthetic LCMV peptide GP276-286 | 38 |
| synthetic LCMV peptide NP396-404 | 50 |
